We go through 167 variants from the RNAGym collection of RNA variant scans (doi:10.7554/elife.80360).

First the molecules themselves.
B1: CPEB3 Ribozyme (parent)
chain: GGGGGCCACAGCAGAAGCGUUCACGUCGCGGCCCCUGUCAGAUUCUGGUGAAUCUGCGAAUUCUGCUGU

The variants in the data set derive from B1. As to the kind of experiment: self-cleavage, relative activity (ratio to wild type); higher = more cleavage; co-transcriptional.
Regarding A42U G65A, the self-cleavage amounted to 0.661. Consider A42U G65C, for which the self-cleavage was found to be 0.433.

For A42U G65U, the self-cleavage came out at 0.481. Take U43A C66A: the self-cleavage turned out to be 0.416. As for U43A C66U, the self-cleavage was found to be 0.831.

As for A42C U64A, the self-cleavage came to 0.625. Regarding A42C U64G, the self-cleavage was 0.769.

Take A42U G47C: the self-cleavage was determined as 0.993. For the variant A42U G47U, the self-cleavage was determined as 1.02.

Take U43G G58U: the self-cleavage amounted to 0.946. In the case of U43G G58C, the self-cleavage came to 0.959. Consider U43A A51G, for which the self-cleavage worked out at 0.928. As for U43A A51U, the figure is 0.939. As to A42G U43C, the self-cleavage is 0.935. In the case of A42G U43G, the self-cleavage amounted to 0.565. As for A42G U43A, the figure is 0.853; as for U43C U62C, 0.86. With U43C U62A the figure was 0.769; with A42U G58A, 0.923; with A42U G58C, 0.97. As for U43G U67C, the figure is 0.915. U43G U67A: the self-cleavage is 0.79. With U43G U67G, the self-cleavage was determined as 0.867.

On to U44A C45G, for which the self-cleavage amounted to 0.983. On to U44A C45U, for which the self-cleavage came out at 0.965. Turning to U43C A51C, the self-cleavage came to 0.968.

For U43A U62G, the self-cleavage stood at 0.641. With U43A U62A, the self-cleavage came out at 0.587. For the variant U43A C54G, the self-cleavage worked out at 0.418.

On to U43A C54A, for which the self-cleavage came to 0.599. For U43C G47A, the self-cleavage is 1.02. Regarding U43C G47C, the self-cleavage was 1.01.

Regarding U43G U44C, the self-cleavage came to 0.936. For the variant U43G U44A, the self-cleavage was found to be 0.971. As for U43G U64A, the self-cleavage was determined as 0.506.

Consider U43G U64C, for which the self-cleavage came out at 0.409. In the case of A42U A59G, the self-cleavage was found to be 0.965. Regarding U43G U69G, the self-cleavage turned out to be 0.97. As for A42C U62A, the figure is 0.673; as for A42C U62G, 0.757; as for A42C U62C, 0.659. Turning to A42U C54G, the self-cleavage was 0.56. On to A42U C54A, for which the self-cleavage was 0.834.

U44A G48A: the self-cleavage was found to be 0.953.

For U43C U55C, the self-cleavage worked out at 0.455. U43C U55A: the self-cleavage amounted to 0.632. As for A42U U43A, the self-cleavage is 0.914. As to U44A A59C, the self-cleavage was found to be 0.638.

In the case of U44A A59U, the self-cleavage worked out at 0.725. For the variant U44A A59G, the self-cleavage stood at 0.924.

U43A U67C: the self-cleavage is 0.895. Turning to U43A U67A, the self-cleavage amounted to 0.919. Consider A42G U55C, for which the self-cleavage came out at 0.492. Regarding A42G U55A, the self-cleavage is 0.543. Turning to U43G C57A, the self-cleavage was found to be 0.293. For A42C U55G, the self-cleavage is 0.285. In the case of A42C U55A, the self-cleavage was found to be 0.595. With A42C U55C the figure was 0.328; with U43G U61C, 0.332. Turning to U43C U64A, the self-cleavage was 0.713.

For the variant U43C U64G, the self-cleavage was 0.825. With U43C U64C the figure was 0.671; with U43A U69G, 1.01.

Regarding U43A U69A, the self-cleavage was determined as 0.974. Take A42U U49G: the self-cleavage was determined as 0.957.

For the variant A42U U49C, the self-cleavage is 0.915. On to A42G U62C, for which the self-cleavage was 0.647. With A42C U46G the figure was 0.929. For the variant A42G G56C, the self-cleavage is 0.475.

As to A42G G56A, the self-cleavage was determined as 0.761. With U43G G48A, the self-cleavage came out at 0.964. Regarding U43G G48C, the self-cleavage is 0.933. As for A42G C54U, the self-cleavage was determined as 0.799. Consider A42G A59U, for which the self-cleavage was 0.735. For A42G A59G, the self-cleavage amounted to 0.81. As for A42G A59C, the self-cleavage is 0.577.

For the variant U43A U44A, the self-cleavage turned out to be 0.888. Take U43A U44C: the self-cleavage was found to be 0.987. With U43A U44G, the self-cleavage is 0.957. Consider A42U U55G, for which the self-cleavage was determined as 0.276.

A42U U55A: the self-cleavage is 0.485. With U43G C45G, the self-cleavage is 0.907. Turning to U43G C45A, the self-cleavage was 0.886.

In the case of U43A G58U, the self-cleavage worked out at 0.946. As for U43A G58A, the figure is 0.929; as for U43C U46A, 0.985. Take U43C U46C: the self-cleavage worked out at 0.939. In the case of U43C U46G, the self-cleavage is 0.97. With A42C U53A, the self-cleavage was determined as 1.03. As to A42G C57U, the self-cleavage turned out to be 0.356.

As to U44C A51G, the self-cleavage worked out at 0.693. Take U44C A51U: the self-cleavage was 0.919. Take U44C A51C: the self-cleavage was determined as 0.99. Take A42C U49A: the self-cleavage was found to be 0.974. A42C U49G: the self-cleavage is 0.964.

For the variant U43C A52C, the self-cleavage worked out at 0.968. For U43C A52U, the self-cleavage came out at 1.

For U43A U64A, the self-cleavage stood at 0.591. For the variant U43A U64C, the self-cleavage turned out to be 0.649. For the variant U43G C54A, the self-cleavage worked out at 0.432. With U43G C54G, the self-cleavage is 0.318. Regarding A42U C63U, the self-cleavage worked out at 0.876. As for U43A U49G, the figure is 0.955. With U43A U49A the figure was 0.944; with U43A U49C, 0.939; with A42G C66A, 0.558. Consider A42G C66G, for which the self-cleavage is 0.622. For A42G C66U, the self-cleavage amounted to 0.93. As for U43A G47U, the self-cleavage was 0.987.

U43A G47C: the self-cleavage came to 0.954. U43A G47A: the self-cleavage worked out at 0.972.

Turning to U43C, the self-cleavage was 0.981. With U43G, the self-cleavage was 0.929. For U43A, the self-cleavage was found to be 0.953. For the variant A42U U64A, the self-cleavage was 0.726. As to A42U U64G, the self-cleavage was 0.722.

Regarding U44A U53G, the self-cleavage was 0.84.

For the variant U44A U53C, the self-cleavage came out at 0.684. U44A U53A: the self-cleavage amounted to 0.922. As for A42G U67C, the figure is 0.957. For A42G U67A, the self-cleavage worked out at 0.86. A42G U67G: the self-cleavage came to 0.897.

With U43C C63G, the self-cleavage is 0.648.

U43C C63A: the self-cleavage was 0.619. As to U43C U69A, the self-cleavage is 1.01. With U43A C63G, the self-cleavage came to 0.45.

On to U43A C63A, for which the self-cleavage amounted to 0.504. Turning to U43G A52G, the self-cleavage turned out to be 0.911. With U43G A52U the figure was 0.992; with U43G A52C, 0.962; with U43A A60G, 0.683. For U43A A60U, the self-cleavage amounted to 0.29. On to U43A G56C, for which the self-cleavage turned out to be 0.336. With U43A G56A the figure was 0.641. For the variant U43A G56U, the self-cleavage amounted to 0.427. In the case of A42G U44A, the self-cleavage was 0.822. A42G U44C: the self-cleavage turned out to be 0.562. Regarding U44A C66G, the self-cleavage is 0.658. As for U44A C66U, the self-cleavage was found to be 0.926. Take U43C U67A: the self-cleavage worked out at 0.98.

For U43C U67C, the self-cleavage was 0.969. Turning to U43C U67G, the self-cleavage was determined as 1.01.

For A42G G48U, the self-cleavage worked out at 0.948. Regarding A42G G48C, the self-cleavage is 0.989. In the case of U43A A52U, the self-cleavage amounted to 0.926. With U44A C54G, the self-cleavage turned out to be 0.461. With U44A C54A the figure was 0.588. With U43A U53G the figure was 0.773; with U44A G56C, 0.383.

As for U44A G56A, the self-cleavage came out at 0.849. A42U: the self-cleavage is 0.965.

Take A42G: the self-cleavage came out at 0.951. Turning to U44A G65A, the self-cleavage came out at 0.755. Consider U44A G65C, for which the self-cleavage worked out at 0.422. As for U44A G65U, the self-cleavage came to 0.588.

On to U43C C66U, for which the self-cleavage turned out to be 0.89. With U43C C66G the figure was 0.806; with A42C U61A, 0.742.

Turning to A42C U61C, the self-cleavage came out at 0.477. A42U A60G: the self-cleavage turned out to be 0.74. With A42U A60U the figure was 0.436; with A42U A60C, 0.219; with U43G U62G, 0.468. As for A42U G68A, the figure is 0.956; as for A42G G47A, 0.955; as for A42G G47U, 0.988.

Regarding A42G A60G, the self-cleavage came out at 0.85.
